Source: the supplement of paper PMC7877785
± gives the uncertainty stated by the source.

Test: self-splicing fitness, log relative to wild type (ln ratio); higher = more splicing; Tetrahymena group I intron in knt gene, E. coli kanamycin selection, DiMSum; sequences stand for … in CUCUCU…GGAGGGAAAAGUUAUCAGGCAUGCACCUGGUAGCUAGUCUUUAAACCAAUAGAUUGCAUCGGUUUAAAAGGCAAGACCGUCAAAUUGCGGGAAAGGGGUCAACAGCCGUUCAGUACCAAGUCUCAGGGGAAACUUUGAGAUGGCCUUGCAAAGGGUAUGGUAAUAAGCUGACGGACAUGGUCCUAACCACGCAGCCAAGUCCUAAGUCAACAGAUCUUCUGUUGAUAUGGAUGCAGUUCACAGACUAAAUGUCGGUCGGGGAAGAUGUAUUCUUCUCAUAAGAUAUAGUCGGACCUCUCCUUAAUGGGAGCUAGCGGAUGAAGUGAUGCAACACUGGAGCCGCUGGGAACUAAUUUGUAUGCGAAAGUAUAUUGAUUAGUUUUGGAGUACUCGUGGUCG
In short: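 Pooled colonies went to amplicon sequencing on an Illumina HiSeq 2500 after six replicate transformations. The plates were LB agar with 100 μg/mL carbenicillin, 50 μM IPTG and 0.2% rhamnose, with or without 25 μg/mL kanamycin, incubated overnight at 37°C or 30°C. The E. coli BL21(DE3) library had all eight P1ex-region intron nucleotides randomised, the intron placed in the knt kanamycin-resistance gene on pET-22b(+). DiMSum fitness is the error-weighted combination of replicate fold changes, kanamycin against none, normalised to wild type.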

Sequence	self-splicing fitness (ln) (30 °C)	self-splicing fitness (ln) (37 °C)
AGCCAGCAAUAUUACGACGC	-1.66 ± 0.14	-0.853 ± 0.16
AGCCAGCAAUAUUACGACGU	-0.356 ± 0.068	-0.487 ± 0.085
AGCCAGCAAUAUUACGAGUA	-3.06 ± 0.22	-1.5 ± 0.16
AGCCAGCAAUAUUACGAUGU	-2.62 ± 0.16	-1.32 ± 0.13
AGCCAGCAAUAUUACGAUUC	-2.67 ± 0.22	-2.49 ± 0.3
AGCCAGCAAUAUUACGCGCC	-2.18 ± 0.15	-1.74 ± 0.23
AGCCAGCAAUAUUACGCGGU	-2.93 ± 0.28	-2.29 ± 0.33
AGCCAGCAAUAUUACGCUGC	-3.09 ± 0.34	-2.59 ± 0.26
AGCCAGCAAUAUUACGGAAC	-2.72 ± 0.18	-3.1 ± 0.3
AGCCAGCAAUAUUACGGAUC	-2.03 ± 0.1	-1.25 ± 0.13
AGCCAGCAAUAUUACGGCAA	-0.763 ± 0.067	-0.321 ± 0.075
AGCCAGCAAUAUUACGGCUU	-4.74 ± 0.41	-2.89 ± 0.21
AGCCAGCAAUAUUACGGGUC	-3.28 ± 0.18	-2.13 ± 0.2
AGCCAGCAAUAUUACGGUGA	-1.82 ± 0.091	-1.2 ± 0.089
AGCCAGCAAUAUUACGUUCG	-3.46 ± 0.19	-2.48 ± 0.22
AGCGAGCAAUAUUACGAAAG	–	-0.117 ± 0.3
AGCGAGCAAUAUUACGAAUA	-3.75 ± 0.46	-3.32 ± 0.37
AGCGAGCAAUAUUACGACUC	-2.06 ± 0.21	-1.3 ± 0.24
AGCGAGCAAUAUUACGCUAG	-3.66 ± 0.29	-2.04 ± 0.27
AGCGAGCAAUAUUACGCUCG	-3.5 ± 0.27	-2.34 ± 0.49
AGCGAGCAAUAUUACGCUGU	-3.15 ± 0.32	-2.08 ± 0.22
AGCGAGCAAUAUUACGCUUC	-3.16 ± 0.24	-2.02 ± 0.28
AGCGAGCAAUAUUACGGACC	-0.957 ± 0.13	-1.08 ± 0.18
AGCGAGCAAUAUUACGGAGU	-3.99 ± 0.28	-3.15 ± 0.3

Sequence	self-splicing fitness (ln) (30 °C)	self-splicing fitness (ln) (37 °C)
AGCGAGCAAUAUUACGGGAG	-2.82 ± 0.2	-2 ± 0.29
AGCGAGCAAUAUUACGGUCG	-2.52 ± 0.12	-1.86 ± 0.13
AGCGAGCAAUAUUACGUGGA	-2.95 ± 0.22	-2.81 ± 0.16
AGCGAGCAAUAUUACGUUCG	-2.14 ± 0.37	-2.67 ± 0.38
AGCGAGCAAUAUUACGUUCU	-2.13 ± 0.14	-0.892 ± 0.14
AGCUAGCAAUAUUACGAAGG	-4.22 ± 0.39	-1.82 ± 0.26
AGCUAGCAAUAUUACGACGA	-1.17 ± 0.12	-0.734 ± 0.14
AGCUAGCAAUAUUACGACGU	0.0109 ± 0.068	-0.112 ± 0.08
AGCUAGCAAUAUUACGCAAG	-4.11 ± 0.47	-2.93 ± 0.3
AGCUAGCAAUAUUACGCACA	-1.51 ± 0.21	-0.817 ± 0.2
AGCUAGCAAUAUUACGCCUC	-2.07 ± 0.34	-1.46 ± 0.37
AGCUAGCAAUAUUACGCGGA	-2.29 ± 0.14	-2.71 ± 0.18
AGCUAGCAAUAUUACGCGUG	-1.6 ± 0.088	-1.53 ± 0.12
AGCUAGCAAUAUUACGCUUA	-1.8 ± 0.19	-2.01 ± 0.19
AGCUAGCAAUAUUACGGAAA	-3.11 ± 0.25	-0.395 ± 0.16
AGCUAGCAAUAUUACGGAAG	-2.35 ± 0.086	-1.34 ± 0.11
AGCUAGCAAUAUUACGGAUG	-2.3 ± 0.082	-0.891 ± 0.095
AGCUAGCAAUAUUACGGCAC	-1.75 ± 0.14	-0.45 ± 0.16
AGCUAGCAAUAUUACGGCGU	0.111 ± 0.11	-0.724 ± 0.13
AGCUAGCAAUAUUACGGUGC	-2.43 ± 0.17	-2.03 ± 0.22
AGCUAGCAAUAUUACGGUUC	-3.44 ± 0.28	-0.512 ± 0.17
AGCUAGCAAUAUUACGUAAG	-2.91 ± 0.12	-1.71 ± 0.14
AGCUAGCAAUAUUACGUACC	-0.329 ± 0.19	-0.483 ± 0.25
AGCUAGCAAUAUUACGUAGA	-4.65 ± 0.32	-1.15 ± 0.14

Sequence	self-splicing fitness (ln) (30 °C)	self-splicing fitness (ln) (37 °C)
AGCUAGCAAUAUUACGUCUA	-1.49 ± 0.11	-0.745 ± 0.13
AGCUAGCAAUAUUACGUUAG	-3.14 ± 0.22	-2.56 ± 0.22
AGGAAGCAAUAUUACGAACA	-1.85 ± 0.14	-0.21 ± 0.2
AGGAAGCAAUAUUACGAAGU	-2.15 ± 0.24	-1.82 ± 0.33
AGGAAGCAAUAUUACGAGUG	-2.62 ± 0.13	-1.8 ± 0.14
AGGAAGCAAUAUUACGAUCC	-0.54 ± 0.16	-0.331 ± 0.17
AGGAAGCAAUAUUACGAUGU	-1.51 ± 0.087	-0.634 ± 0.1
AGGAAGCAAUAUUACGCGGU	-4.18 ± 0.39	-1.31 ± 0.2
AGGAAGCAAUAUUACGGAAC	-3.47 ± 0.26	-2.96 ± 0.31
AGGAAGCAAUAUUACGGAUC	-1.75 ± 0.16	-1.02 ± 0.22
AGGAAGCAAUAUUACGGAUG	-3.64 ± 0.2	-2.37 ± 0.22
AGGAAGCAAUAUUACGGCUU	-3.74 ± 0.34	-1.32 ± 0.17
AGGAAGCAAUAUUACGGUUG	-3.3 ± 0.17	-2.23 ± 0.16
AGGAAGCAAUAUUACGUAAA	-2.59 ± 0.18	-1.88 ± 0.18
AGGAAGCAAUAUUACGUCCU	-3.89 ± 0.16	-2.04 ± 0.15
AGGAAGCAAUAUUACGUCGA	-1.4 ± 0.16	-0.922 ± 0.16
AGGAAGCAAUAUUACGUCGU	-2.6 ± 0.14	-0.803 ± 0.12
AGGAAGCAAUAUUACGUCUG	-0.767 ± 0.058	-0.387 ± 0.073
AGGAAGCAAUAUUACGUGAU	-3.24 ± 0.13	-2.57 ± 0.18
AGGAAGCAAUAUUACGUGUG	-2.29 ± 0.077	-1.85 ± 0.095
AGGAAGCAAUAUUACGUUGG	-3.22 ± 0.3	-2.33 ± 0.17
AGGAAGCAAUAUUACGUUUA	-2.27 ± 0.12	-1.8 ± 0.14
AGGCAGCAAUAUUACGAAGC	-4.02 ± 0.42	-2.73 ± 0.33
AGGCAGCAAUAUUACGACAA	-1.26 ± 0.14	-0.976 ± 0.13

Sequence	self-splicing fitness (ln) (30 °C)	self-splicing fitness (ln) (37 °C)
AGGCAGCAAUAUUACGACGA	-0.555 ± 0.12	-0.00249 ± 0.14
AGGCAGCAAUAUUACGAGAC	-1.96 ± 0.13	-2.65 ± 0.22
AGGCAGCAAUAUUACGAGUU	-1.69 ± 0.11	-0.885 ± 0.1
AGGCAGCAAUAUUACGAUAU	-1.27 ± 0.069	-0.399 ± 0.091
AGGCAGCAAUAUUACGAUCA	-0.829 ± 0.13	-0.234 ± 0.15
AGGCAGCAAUAUUACGAUUU	-0.23 ± 0.085	-0.332 ± 0.1
AGGCAGCAAUAUUACGCAUA	-0.866 ± 0.081	-1.07 ± 0.093
AGGCAGCAAUAUUACGCAUU	-2.24 ± 0.13	-0.577 ± 0.1
AGGCAGCAAUAUUACGCCGA	-1.28 ± 0.35	-1.97 ± 0.22
AGGCAGCAAUAUUACGCCGC	-2.8 ± 0.18	-2.66 ± 0.29
AGGCAGCAAUAUUACGCCUG	-1.78 ± 0.14	-0.748 ± 0.14
AGGCAGCAAUAUUACGCGGU	-3.61 ± 0.19	-2.98 ± 0.17
AGGCAGCAAUAUUACGCUGG	-3.73 ± 0.22	-1.2 ± 0.17
AGGCAGCAAUAUUACGGACU	-0.344 ± 0.079	0.146 ± 0.093
AGGCAGCAAUAUUACGGCGG	-1.62 ± 0.094	-1.11 ± 0.13
AGGCAGCAAUAUUACGGCGU	-0.172 ± 0.063	-0.0953 ± 0.079
AGGCAGCAAUAUUACGGGUA	-2.35 ± 0.15	-1.05 ± 0.11
AGGCAGCAAUAUUACGGUAG	-3.33 ± 0.25	-2.66 ± 0.29
AGGCAGCAAUAUUACGGUCG	-0.147 ± 0.079	-0.266 ± 0.1
AGGCAGCAAUAUUACGUAAC	-2.03 ± 0.12	-0.934 ± 0.14
AGGCAGCAAUAUUACGUAGU	-3.18 ± 0.12	-1.75 ± 0.11
AGGCAGCAAUAUUACGUGUU	-1.85 ± 0.063	-1.38 ± 0.088
AGGCAGCAAUAUUACGUUCC	-0.801 ± 0.12	-0.27 ± 0.16
